In data set [1] the target is T1, CST(STN1-OBM) (human, UniProt Q2NKJ3;Q9H668;Q86WV5 1-1217;1-368;1-123, W89A;R139L;Y141A). As to the kind of experiment: EMSA; up to 20 nM CST; 25 mM Tris pH 8.0, 1 mM DTT, 150 mM NaCl; EMSA 0.1 nM DNA, 30 min RT; filter binding 0.01 nM DNA, 18 h 4 C; crosslinking 20 nM CST, 2 nM DNA, UVA on ice. The following applies: protein: recombinant; tags: N-terminal FLAG-CTC1, His-STN1-OBM; TEN1 untagged; copies: 1;1;1; label: 32P. In general terms: Mobility shift assays separate free from complexed probe on a gel.
T1 sequence (Q2NKJ3 whole entry, chain 1 of 3): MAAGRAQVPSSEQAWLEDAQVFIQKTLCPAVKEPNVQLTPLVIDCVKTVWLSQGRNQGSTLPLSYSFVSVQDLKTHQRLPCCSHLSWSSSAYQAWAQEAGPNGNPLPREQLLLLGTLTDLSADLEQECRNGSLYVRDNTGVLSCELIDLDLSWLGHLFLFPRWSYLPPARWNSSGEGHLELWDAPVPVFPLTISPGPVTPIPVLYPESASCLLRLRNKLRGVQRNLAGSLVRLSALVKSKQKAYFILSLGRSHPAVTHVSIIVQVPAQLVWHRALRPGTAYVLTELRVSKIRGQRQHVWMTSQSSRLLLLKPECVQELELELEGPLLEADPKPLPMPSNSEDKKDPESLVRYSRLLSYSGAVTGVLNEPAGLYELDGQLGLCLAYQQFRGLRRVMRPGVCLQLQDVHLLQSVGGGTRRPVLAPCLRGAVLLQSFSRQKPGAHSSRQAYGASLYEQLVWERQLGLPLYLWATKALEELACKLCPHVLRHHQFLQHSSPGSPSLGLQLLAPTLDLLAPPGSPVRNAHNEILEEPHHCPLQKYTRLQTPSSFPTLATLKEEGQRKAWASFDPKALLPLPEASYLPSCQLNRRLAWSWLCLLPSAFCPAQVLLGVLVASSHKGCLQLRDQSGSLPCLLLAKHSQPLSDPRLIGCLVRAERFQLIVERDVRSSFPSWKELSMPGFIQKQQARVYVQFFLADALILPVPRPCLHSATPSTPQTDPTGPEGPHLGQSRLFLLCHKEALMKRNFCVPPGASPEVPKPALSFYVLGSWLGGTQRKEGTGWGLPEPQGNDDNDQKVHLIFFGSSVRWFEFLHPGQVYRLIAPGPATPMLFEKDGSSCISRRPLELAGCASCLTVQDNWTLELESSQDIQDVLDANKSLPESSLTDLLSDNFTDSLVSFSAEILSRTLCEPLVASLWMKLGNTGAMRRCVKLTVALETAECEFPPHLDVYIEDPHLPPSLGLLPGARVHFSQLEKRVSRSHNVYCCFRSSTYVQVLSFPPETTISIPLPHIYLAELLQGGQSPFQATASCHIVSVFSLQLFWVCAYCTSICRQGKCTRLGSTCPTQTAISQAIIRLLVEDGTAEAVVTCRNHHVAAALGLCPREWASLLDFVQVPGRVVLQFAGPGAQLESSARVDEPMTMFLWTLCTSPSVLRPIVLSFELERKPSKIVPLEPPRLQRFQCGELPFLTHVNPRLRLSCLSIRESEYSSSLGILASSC
T1 sequence (Q9H668 whole entry W89A/R139L/Y141A, chain 2 of 3): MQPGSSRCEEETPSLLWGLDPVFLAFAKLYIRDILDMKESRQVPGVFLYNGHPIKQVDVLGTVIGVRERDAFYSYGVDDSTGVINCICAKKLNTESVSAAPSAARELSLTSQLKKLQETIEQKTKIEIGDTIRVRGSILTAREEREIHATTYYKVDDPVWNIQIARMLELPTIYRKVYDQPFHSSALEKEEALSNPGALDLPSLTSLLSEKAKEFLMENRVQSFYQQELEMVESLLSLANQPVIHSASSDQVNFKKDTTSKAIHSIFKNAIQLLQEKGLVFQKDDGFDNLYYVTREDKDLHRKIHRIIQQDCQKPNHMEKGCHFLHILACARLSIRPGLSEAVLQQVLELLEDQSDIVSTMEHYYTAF
T1 sequence (Q86WV5 whole entry, chain 3 of 3): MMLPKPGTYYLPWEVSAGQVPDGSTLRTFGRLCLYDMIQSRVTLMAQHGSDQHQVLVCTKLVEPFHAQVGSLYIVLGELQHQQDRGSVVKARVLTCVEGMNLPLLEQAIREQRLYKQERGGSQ

The target of data set [2] is T2, CST(WT) (CTC1-STN1-TEN1) (human, UniProt Q2NKJ3;Q9H668;Q86WV5 1-1217;1-368;1-123). Described as above. Conditions: protein: recombinant; tags: N-terminal FLAG-CTC1, His-STN1; TEN1 untagged (Methods says all tags N-terminal); copies: 1;1;1; label: 32P.
T2 sequence (Q2NKJ3 whole entry, chain 1 of 3): as the sequence (Q2NKJ3 whole entry, chain 1 of 3) above
T2 sequence (Q9H668 whole entry, chain 2 of 3): as the sequence (Q9H668 whole entry W89A/R139L/Y141A, chain 2 of 3) above, with A89W, L139R, A141Y counted along it
T2 sequence (Q86WV5 whole entry, chain 3 of 3): as the sequence (Q86WV5 whole entry, chain 3 of 3) above
For data set [3], the target named is T2, CST(WT) (CTC1-STN1-TEN1). As to the kind of experiment: UV crosslinking; CTC1 and (less efficiently) STN1 crosslinked; 25 mM Tris pH 8.0, 1 mM DTT, 150 mM NaCl; EMSA 0.1 nM DNA, 30 min RT; filter binding 0.01 nM DNA, 18 h 4 C; crosslinking 20 nM CST, 2 nM DNA, UVA on ice. Conditions: protein: recombinant; tags: N-terminal FLAG-CTC1, His-STN1; TEN1 untagged (Methods says all tags N-terminal); copies: 1;1;1; label: 32P.

Data set [4] has as its target T1, CST(STN1-OBM). Put plainly: EMSA; similar affinity to CST(WT); 25 mM Tris pH 8.0, 1 mM DTT, 150 mM NaCl; EMSA 0.1 nM DNA, 30 min RT; filter binding 0.01 nM DNA, 18 h 4 C; crosslinking 20 nM CST, 2 nM DNA, UVA on ice. The following applies: protein: recombinant; tags: N-terminal FLAG-CTC1, His-STN1-OBM; TEN1 untagged; copies: 1;1;1; label: 32P.
Data set [5] addresses T2, CST(WT) (CTC1-STN1-TEN1). Put plainly: EMSA; 25 mM Tris pH 8.0, 1 mM DTT, 150 mM NaCl; EMSA 0.1 nM DNA, 30 min RT; filter binding 0.01 nM DNA, 18 h 4 C; crosslinking 20 nM CST, 2 nM DNA, UVA on ice. Conditions: protein: recombinant; tags: N-terminal FLAG-CTC1, His-STN1; TEN1 untagged (Methods says all tags N-terminal); copies: 1;1;1; label: 32P.
The target of data set [6] is T2, CST(WT) (CTC1-STN1-TEN1). As to the kind of experiment: UV crosslinking; only CTC1 reproducibly crosslinked; 25 mM Tris pH 8.0, 1 mM DTT, 150 mM NaCl; EMSA 0.1 nM DNA, 30 min RT; filter binding 0.01 nM DNA, 18 h 4 C; crosslinking 20 nM CST, 2 nM DNA, UVA on ice. Conditions: protein: recombinant; tags: N-terminal FLAG-CTC1, His-STN1; TEN1 untagged (Methods says all tags N-terminal); copies: 1;1;1; label: 32P.

Data set [7] addresses T2, CST(WT) (CTC1-STN1-TEN1). Put plainly: UV crosslinking; CTC1, STN1 and TEN1 crosslinked; 25 mM Tris pH 8.0, 1 mM DTT, 150 mM NaCl; EMSA 0.1 nM DNA, 30 min RT; filter binding 0.01 nM DNA, 18 h 4 C; crosslinking 20 nM CST, 2 nM DNA, UVA on ice. Conditions: protein: recombinant; tags: N-terminal FLAG-CTC1, His-STN1; TEN1 untagged (Methods says all tags N-terminal); copies: 1;1;1; label: 32P.

Data set [8] has as its target T2, CST(WT) (CTC1-STN1-TEN1). Put plainly: UV crosslinking; CTC1 and STN1 crosslinked; 25 mM Tris pH 8.0, 1 mM DTT, 150 mM NaCl; EMSA 0.1 nM DNA, 30 min RT; filter binding 0.01 nM DNA, 18 h 4 C; crosslinking 20 nM CST, 2 nM DNA, UVA on ice. Conditions: protein: recombinant; tags: N-terminal FLAG-CTC1, His-STN1; TEN1 untagged (Methods says all tags N-terminal); copies: 1;1;1; label: 32P.

The target of data set [9] is T2, CST(WT) (CTC1-STN1-TEN1). Put plainly: filter binding; Kd,app measured, value only in Fig 6C; 25 mM Tris pH 8.0, 1 mM DTT, 150 mM NaCl; EMSA 0.1 nM DNA, 30 min RT; filter binding 0.01 nM DNA, 18 h 4 C; crosslinking 20 nM CST, 2 nM DNA, UVA on ice. The following applies: protein: recombinant; tags: N-terminal FLAG-CTC1, His-STN1; TEN1 untagged (Methods says all tags N-terminal); copies: 1;1;1; label: 32P.

B1: NonTel-18 (ssDNA)
DNA: AGCGTATCCGTTCAGTTG
As to B1, the binding result in the data set with CST(STN1-OBM) [1] and in the data set with CST(WT) (CTC1-STN1-TEN1) [2] was “no binding” in each case.

B2: 5'-s4T TelG-18 (ssDNA)
DNA: GGTTAGGGTTAGGGTTAG
modifications: 4-thiothymidine at position 3 (third nt from 5' end)
As for B2, the binding result with CST(WT) (CTC1-STN1-TEN1) [3] was “binds”.

B3: TelG-48 (ssDNA)
DNA: GGTTAGGGTTAGGGTTAGGGTTAGGGTTAGGGTTAGGGTTAGGGTTAG
Turning to B3, the binding result in the data set with CST(STN1-OBM) [4] and with CST(WT) (CTC1-STN1-TEN1) [5] was “binds” each time.

B4: 5'-s4T TelG-48 (ssDNA)
DNA: B3 DNA
modifications: 4-thiothymidine at position 3 (third nt from 5' end)
On to B4, for which the binding result with CST(WT) (CTC1-STN1-TEN1) [6] is on record as “binds”.

B5: 3'-s4T TelG-48 (ssDNA)
DNA: B3 DNA
modifications: 4-thiothymidine at position 46 (third nt from 3' end)
For B5, in the data set with CST(WT) (CTC1-STN1-TEN1) [7], the binding result is “binds”.

B6: 3'-s4T TelG-18 (ssDNA)
DNA: GGTTAGGGTTAGGGTTAG
modifications: 4-thiothymidine at position 16 (third nt from 3' end)
Turning to B6, the binding result in the data set with CST(WT) (CTC1-STN1-TEN1) [8] was “binds”.

B7: NonTel-48 (ssDNA)
DNA: AGCGTATCCGTTCAGTTGAGCGTATCCGTTCAGTTGAGCGTATCCGTT
Consider B7, for which the binding result with CST(STN1-OBM) [4] and with CST(WT) (CTC1-STN1-TEN1) [5] was “binds” in each case.

B8: NonTel-36 (ssDNA)
DNA: AGCGTATCCGTTCAGTTGAGCGTATCCGTTCAGTTG
B8: the binding result in the data set with CST(WT) (CTC1-STN1-TEN1) [5] was “binds”.

B9: TelG-18 (ssDNA)
DNA: GGTTAGGGTTAGGGTTAG
Take B9: the binding result with CST(WT) (CTC1-STN1-TEN1) [9] is reported as “binds”.

Source of the values: PMC5045167, “STN1 OB Fold Mutation Alters DNA Binding and Affects Selective Aspects of CST Function”.
